{"source": "paper PMC4974627", "about": "(Biochemistry, 2016)", "proteins": {"B1": {"name": "Arabidopsis thaliana S-nitrosoglutathione reductase (AtGSNOR), CysSH-treated control (unmodified) (enzyme)", "chain": "ATQGQVITCKAAVAYEPNKPLVIEDVQVAPPQAGEVRIKILYTALCHTDAYTWSGKDPEGLFPCILGHEAAGIVESVGEGVTEVQAGDHVIPCYQAECRECKFCKSGKTNLCGKVRSATGVGIMMNDRKSRFSVNGKPIYHFMGTSTFSQYTVVHDVSVAKIDPTAPLDKVCLLGCGVPTGLGAVWNTAKVEPGSNVAIFGLGTVGLAVAEGAKTAGASRIIGIDIDSKKYETAKKFGVNEFVNPKDHDKPIQEVIVDLTDGGVDYSFECIGNVSVMRAALECCHKGWGTSVIVGVAASGQEISTRPFQLVTGRVWKGTAFGGFKSRTQVPWLVEKYMNKEIKVDEYITHNLTLGEINKAFDLLHEGTCLRCVLDTSK"}}, "molecular_target": "the molecule itself", "test": "native MS", "data": [{"protein": "B1", "values": [{"measurement": "stoichiometry N", "value": 2}]}]}
